Source: paper doi:10.1101/2025.08.07.669073 (bioRxiv, 2025)
Where a chain is given by its changes, count along the chain named. Names and notes keep the numbering of the source. Each block holds one molecule with its values, some of them ahead of it.

What was measured:
[1] = target: human ATP13A1 mutated at the border between the membrane region and the ER lumen (human) (UniProt Q9HD20); assay: co-IP
[2] = target: yeast EMC with Emc5-GFP, Emc10 deleted (S. cerevisiae) (UniProt P25574); assay: co-IP
[3] = target: yeast EMC with Emc5-GFP, Emc7 deleted (S. cerevisiae, UniProt P25574;P47133;P36039;P53073;P40540;Q12431;Q12025); assay: co-IP
[4] = target: yeast EMC with Emc5-TSII, recombinant from insect cells (S. cerevisiae) (UniProt P25574); assay: co-IP
[5] = target: T1, yeast Spf1-FLAG, recombinant from insect cells (S. cerevisiae, UniProt P39986); assay: cryo-EM structure
T1 sequence: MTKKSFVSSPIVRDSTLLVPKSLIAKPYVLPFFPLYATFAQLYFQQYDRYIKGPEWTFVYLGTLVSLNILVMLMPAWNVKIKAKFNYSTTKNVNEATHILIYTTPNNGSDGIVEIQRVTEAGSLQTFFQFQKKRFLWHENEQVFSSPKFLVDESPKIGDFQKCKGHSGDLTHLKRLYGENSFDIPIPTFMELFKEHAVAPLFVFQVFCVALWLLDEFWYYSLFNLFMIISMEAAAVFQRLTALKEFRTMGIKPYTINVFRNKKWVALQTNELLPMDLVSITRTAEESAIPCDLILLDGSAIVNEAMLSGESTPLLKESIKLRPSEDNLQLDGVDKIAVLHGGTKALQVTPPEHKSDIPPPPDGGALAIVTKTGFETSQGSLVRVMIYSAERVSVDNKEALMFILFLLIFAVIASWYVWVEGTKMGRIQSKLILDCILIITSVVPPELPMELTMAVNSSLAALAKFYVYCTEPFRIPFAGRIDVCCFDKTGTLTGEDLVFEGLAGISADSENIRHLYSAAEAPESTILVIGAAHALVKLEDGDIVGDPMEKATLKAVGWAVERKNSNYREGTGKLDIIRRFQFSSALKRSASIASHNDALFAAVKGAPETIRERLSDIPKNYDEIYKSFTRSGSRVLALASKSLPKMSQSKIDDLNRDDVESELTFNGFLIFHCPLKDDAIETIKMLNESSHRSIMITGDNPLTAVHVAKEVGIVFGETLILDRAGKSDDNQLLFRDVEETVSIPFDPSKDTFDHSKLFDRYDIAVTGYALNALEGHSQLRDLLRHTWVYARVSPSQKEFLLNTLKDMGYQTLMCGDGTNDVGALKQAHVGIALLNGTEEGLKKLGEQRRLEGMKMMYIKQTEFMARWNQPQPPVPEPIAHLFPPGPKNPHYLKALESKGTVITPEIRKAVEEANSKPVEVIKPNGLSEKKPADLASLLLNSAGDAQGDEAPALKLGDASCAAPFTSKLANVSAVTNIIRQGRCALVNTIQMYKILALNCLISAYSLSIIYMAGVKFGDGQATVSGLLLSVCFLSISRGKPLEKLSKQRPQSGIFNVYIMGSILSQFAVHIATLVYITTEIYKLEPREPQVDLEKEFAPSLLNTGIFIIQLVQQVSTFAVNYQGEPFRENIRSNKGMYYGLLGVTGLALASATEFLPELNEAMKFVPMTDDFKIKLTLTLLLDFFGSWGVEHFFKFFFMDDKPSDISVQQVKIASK

Chain of yeast EMC with Emc5-GFP, Emc7 deleted (P25574 25-760, stated change not applied, chain 1 of 4): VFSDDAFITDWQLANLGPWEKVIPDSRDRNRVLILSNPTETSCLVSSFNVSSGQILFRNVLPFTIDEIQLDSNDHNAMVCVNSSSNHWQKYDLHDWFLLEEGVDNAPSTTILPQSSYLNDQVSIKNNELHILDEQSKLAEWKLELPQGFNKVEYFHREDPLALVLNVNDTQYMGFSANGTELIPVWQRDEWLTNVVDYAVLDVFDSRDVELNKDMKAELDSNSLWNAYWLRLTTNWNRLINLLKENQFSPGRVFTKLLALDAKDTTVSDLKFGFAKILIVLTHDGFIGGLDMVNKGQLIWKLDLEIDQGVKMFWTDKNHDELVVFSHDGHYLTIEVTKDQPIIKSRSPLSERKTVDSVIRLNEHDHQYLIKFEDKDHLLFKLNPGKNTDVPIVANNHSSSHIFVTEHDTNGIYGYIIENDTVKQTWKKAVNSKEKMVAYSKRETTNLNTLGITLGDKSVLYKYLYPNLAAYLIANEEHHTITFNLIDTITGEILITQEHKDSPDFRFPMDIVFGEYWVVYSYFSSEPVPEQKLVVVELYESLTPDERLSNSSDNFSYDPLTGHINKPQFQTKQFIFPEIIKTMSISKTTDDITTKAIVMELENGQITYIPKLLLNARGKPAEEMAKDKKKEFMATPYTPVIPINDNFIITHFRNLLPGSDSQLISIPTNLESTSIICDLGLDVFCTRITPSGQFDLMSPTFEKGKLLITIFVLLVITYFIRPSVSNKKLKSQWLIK
Chain of yeast EMC with Emc5-GFP, Emc7 deleted (P47133 whole entry, stated change not applied, chain 2 of 4): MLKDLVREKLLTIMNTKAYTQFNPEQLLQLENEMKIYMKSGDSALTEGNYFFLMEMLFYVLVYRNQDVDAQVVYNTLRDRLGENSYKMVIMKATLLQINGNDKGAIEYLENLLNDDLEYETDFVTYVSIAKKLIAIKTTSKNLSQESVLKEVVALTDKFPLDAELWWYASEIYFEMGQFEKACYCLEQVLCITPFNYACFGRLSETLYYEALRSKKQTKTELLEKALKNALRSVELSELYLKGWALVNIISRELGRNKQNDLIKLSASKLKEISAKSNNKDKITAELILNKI
Chain of yeast EMC with Emc5-GFP, Emc7 deleted (P40540 whole entry, stated change not applied, chain 5 of 4): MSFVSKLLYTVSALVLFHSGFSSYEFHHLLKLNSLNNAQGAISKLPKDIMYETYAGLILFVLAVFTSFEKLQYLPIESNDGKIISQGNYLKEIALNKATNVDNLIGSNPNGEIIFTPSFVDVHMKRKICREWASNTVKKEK
Chain of yeast EMC with Emc5-GFP, Emc7 deleted (Q12431 whole entry, stated change not applied, chain 6 of 4): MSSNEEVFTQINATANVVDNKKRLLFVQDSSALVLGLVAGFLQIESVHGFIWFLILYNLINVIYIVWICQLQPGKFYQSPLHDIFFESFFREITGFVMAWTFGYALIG
Chain of human ATP13A1 mutated at the border between the membrane region and the ER lumen (human) (Q9HD20 whole entry, stated change not applied): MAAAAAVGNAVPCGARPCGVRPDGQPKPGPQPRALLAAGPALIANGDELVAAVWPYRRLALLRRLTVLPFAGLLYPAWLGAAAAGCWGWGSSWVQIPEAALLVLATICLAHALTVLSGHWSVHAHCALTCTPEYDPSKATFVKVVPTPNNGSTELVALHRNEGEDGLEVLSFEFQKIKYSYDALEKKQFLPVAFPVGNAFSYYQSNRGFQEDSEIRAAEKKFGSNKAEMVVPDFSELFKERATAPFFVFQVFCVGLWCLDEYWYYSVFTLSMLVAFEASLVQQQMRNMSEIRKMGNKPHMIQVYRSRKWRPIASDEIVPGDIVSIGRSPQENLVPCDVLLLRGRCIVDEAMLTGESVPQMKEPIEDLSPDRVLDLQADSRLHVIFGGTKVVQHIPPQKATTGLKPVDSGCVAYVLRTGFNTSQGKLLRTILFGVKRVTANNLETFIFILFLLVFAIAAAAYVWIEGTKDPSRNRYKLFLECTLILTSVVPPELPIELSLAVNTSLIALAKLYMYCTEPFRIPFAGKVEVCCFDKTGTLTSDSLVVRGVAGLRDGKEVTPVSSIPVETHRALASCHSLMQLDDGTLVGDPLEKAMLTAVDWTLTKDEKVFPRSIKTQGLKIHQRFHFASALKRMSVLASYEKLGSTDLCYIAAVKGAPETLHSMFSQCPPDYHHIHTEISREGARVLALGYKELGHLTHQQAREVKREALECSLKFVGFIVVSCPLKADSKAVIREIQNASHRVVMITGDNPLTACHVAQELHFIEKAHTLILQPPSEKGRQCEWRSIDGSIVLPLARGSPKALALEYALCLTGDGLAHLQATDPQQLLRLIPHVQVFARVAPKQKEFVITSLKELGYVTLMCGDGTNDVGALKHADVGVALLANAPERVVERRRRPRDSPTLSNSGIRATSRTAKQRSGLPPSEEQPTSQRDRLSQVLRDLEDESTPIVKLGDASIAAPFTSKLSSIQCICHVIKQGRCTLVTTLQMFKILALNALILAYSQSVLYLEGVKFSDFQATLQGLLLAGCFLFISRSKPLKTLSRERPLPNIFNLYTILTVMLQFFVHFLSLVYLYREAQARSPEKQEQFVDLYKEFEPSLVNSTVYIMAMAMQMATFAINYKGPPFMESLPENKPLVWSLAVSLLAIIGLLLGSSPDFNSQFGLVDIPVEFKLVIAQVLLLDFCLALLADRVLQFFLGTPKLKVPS

B1: Spf1 with C-terminal triple HA-tag, endogenous locus, S. cerevisiae (natural protein)
chain: T1 sequence
Spf1 to Emc5 ratio in the IP, percent of wt [2]: 48%
Spf1 to Emc5 ratio in the IP, percent of wt [3]: 40%

B2: yeast Spf1 E1087A, recombinant from insect cells (natural protein)
chain: T1 sequence with E1087A
EMC:Spf1 interaction, percent of wt [4]: 30%

B3: yeast Emc3, subunit in the recombinant EMC:Spf1 complex (natural protein)
chain: MLLDDQLKYWVLLPISIVMVLTGVLKQYIMTLITGSSANEAQPRVKLTEWQYLQWAQLLIGNGGNLSSDAFAAKKEFLVKDLTEERHLAKAKQQDGSQAGEVPNPFNDPSMSNAMMNMAKGNMASFIPQTIIMWWVNHFFAGFILMQLPFPLTAKFKEMLQTGIICQDLDVRWVSSISWYFISVLGLNPVYNLIGLNDQDMGIQAGIGGPQGPQGPPQSQVDKAMHAMANDLTIIQHETCLDNVEQRVLKQYM
binding result [5]: binds

B5: yeast Emc10, subunit in the recombinant EMC:Spf1 complex (natural protein)
chain: ADILQLSYSDDAKDAIPLGTFEIDSTSDGNVTVTTVNIQDVEVSGEYCLNAQIEGKLDMPCFSYMKLRTPLKYDLIVDVDEDNEVKQVSLSYDETNDAITATVRYPEAGPTAPVTKLKKKTKTYADKKASKNKDGSTAQFEEDEEVKEVSWFQKNWKMLLLGLLIYNFVAGSAKKQQQGGAGADQKTE
binding result [5]: binds

Results, then the molecule that gave them:

interaction with the hEMC relative to wt [1]: 0.5 of wt
Molecule: human EMC, endogenous, HEK293T (from UniProt Q8N766;Q15006;Q9P0I2;Q5J8M3;Q8N4V1;Q9BV81;Q9NPA0;O43402;Q5UCC4) (complex)

binding result [5]: binds
B4: yeast Emc4, subunit in the recombinant EMC:Spf1 complex (natural protein)
chain: MSEQEPYEWAKHLLDTKYIEKYNIQNSNTLPSPPGFEGNSSKGNVTRKQQDATSQTTSLAQKNQITVLQVQKAWQIALQPAKSIPMNIFMSYMSGTSLQIIPIMTALMLLSGPIKAIFSTRSAFKPVLGNKATQSQVQTAMFMYIVFQGVLMYIGYRKLNSMGLIPNAKGDWLPWERIAHYNNGLQWFSD
